Test results: patent publication EP2295560A1, “Directed evolution of arginine deiminase for increased activity at physiological pH” (priority 2009, dated 2011)

System: N=C(N)NCCC[C@H](N)C(=O)O
Assay: Determination of kcat and Km (citrulline colorimetric assay, purified enzyme)
Format: biochemical, Pseudomonas plecoglossicida CGMCC2039
Settings: 0.5 M phosphate buffer, 0.2 mM to 10 mM of arginine
Protocol: The kcat and Km values were determined from initial velocity data measured as a function of substrate concentration. Enzyme reaction was carried out at 37°C in a water bath. After 10 min preincubation at 37"C, the enzyme reaction was initiated by addition of purified enzyme (50 µl, 0.2-0.5 µM) to the substrate solution (200 µl, 0.2 mM to 10 mM of arginine, 0.5 M phosphate buffer, pH 7.4) in deep well plates. The reaction mixture was incubated (37°C) and every two minutes reaction mixture (30 µl) of each well was transferred to acid-ferric solution (30 µl) to stop the enzyme reaction. The color development was subsequently performed in 96-well PCR plate. Ferric-acid solution (90 µl) and DAM-TSC solution (15 µl) were added to each well. The 96-well PCR plate was then incubated (70°C, 30 min) in thermal cycler (Eppendorf Mastercyler gradient) for color development, followed by incubation in ice water to stop color development. Absorbance was measured at 530 nm using a microtiter plate reader (SPECTROstar Omega, BMG LABTECH, Offenburg, Germany). The initial velocity data obtained were fitted to the equation v = Vmax[S]/([S] + Km) (where v is the initial velocity, Vmax the maximum velocity, [S] the substrate concentration, and Km the Michaelis constant) using GraphPad Prism software (GraphPad software, San Diego, CA, USA). The kcat was calculated from the ratio of Vmax, and enzyme concentration.
For kinetic characterization of ADI variants the citrulline production was maintained between 0.2-0.8 mM. […] Figure 4 summarizes the kcat and Km values of wild type PpADI, identified variants M1 […] and M2 (K5T D44E H404R) which were expressed in shaking flasks cultures and purified using a two step procedure (anion exchange follows by gel filtration). Both variants M1 and M2 show an increase in kcat and Km for citrulline production at pH 7.4.

Pseudomonas plecoglossicida arginine deiminase (PpADI), wild type, SEQ ID No. 1 (Pseudomonas plecoglossicida)
Km (other: wild type PpADI, pH 7.4, 37°C): 700 µM

Pseudomonas plecoglossicida arginine deiminase (PpADI) variant M2 (K5T D44E H404R) (Pseudomonas plecoglossicida; D44E/H404R/K5T)
Km (other: M2, pH 7.4, 37°C): 2500 µM

Pseudomonas plecoglossicida arginine deiminase (PpADI) variant M1 (H404R) (Pseudomonas plecoglossicida; H404R)
Km (other: M1, pH 7.4, 37°C): 1200 µM
